Details in all cases: both partners purified
Assay [1] deals with T1, filamentous actin (F-actin) (UniProt P68135 1-377). Kind of assay: stopped-flow light scattering + other: stopped-flow pyrene-actin fluorescence; dissociation equilibrium constant calculated as k-DA/k+DA; presence of ADP; salt free stopped-flow buffer.
The target of assay [2] is T1, filamentous actin (F-actin). Kind of assay: stopped-flow light scattering; myosin motor domain binding to F-actin in the presence of ADP; salt free stopped-flow buffer.
Assay [3] shares this target. Kind of assay: stopped-flow light scattering + other: stopped-flow pyrene-actin fluorescence; dissociation equilibrium constant calculated as k-A/k+A; absence of nucleotide (rigor); salt free stopped-flow buffer.
Assay [4] has as its target T2, pyrene-labeled filamentous actin (UniProt P68135 1-377, pyrene label). In words: stopped-flow pyrene-actin fluorescence; dissociation of the myosin motor domain from pyrene-actin; salt free stopped-flow buffer; samples treated with apyrase prior to the assay (rigor conditions).
In assay [5] the target is T2, pyrene-labeled filamentous actin. Kind of assay: stopped-flow pyrene-actin fluorescence; dissociation of the myosin motor domain from pyrene-actin in the presence of ADP; salt free stopped-flow buffer.
In assay [6] the target is T1, filamentous actin (F-actin). Kind of assay: stopped-flow light scattering; myosin motor domain binding to F-actin in a stopped-flow system; salt free stopped-flow buffer; samples treated with apyrase prior to the assay (rigor conditions).

Numbering of substitutions follows the chain as printed. In names and notes the source's numbering stands.

The source of these data is paper PMC5749951, “Mechanistic insights into the active site and allosteric communication pathways in human nonmuscle myosin-2C” (eLife, 2017).

B1: human nonmuscle myosin-2C motor domain (amino acids 1-799) directly fused to spectrin repeats 1 and 2 from Dictyostelium alpha-actinin, C-terminal Flag-tag (domain or fragment)
chain: MAAVTMSVPGRKAPPRPGPVPEAAQPFLFTPRGPSAGGGPGSGTSPQVEWTARRLVWVPSELHGFEAAALRDEGEEEAEVELAESGRRLRLPRDQIQRMNPPKFSKAEDMAELTCLNEASVLHNLRERYYSGLIYTYSGLFCVVINPYKQLPIYTEAIVEMYRGKKRHEVPPHVYAVTEGAYRSMLQDREDQSILCTGESGAGKTENTKKVIQYLAHVASSPKGRKEPGVPGELERQLLQANPILEAFGNAKTVKNDNSSRFGKFIRINFDVAGYIVGANIETYLLEKSRAIRQAKDECSFHIFYQLLGGAGEQLKADLLLEPCSHYRFLTNGPSSSPGQERELFQETLESLRVLGFSHEEIISMLRMVSAVLQFGNIALKRERNTDQATMPDNTAAQKLCRLLGLGVTDFSRALLTPRIKVGRDYVQKAQTKEQADFALEALAKATYERLFRWLVLRLNRALDRSPRQGASFLGILDIAGFEIFQLNSFEQLCINYTNEKLQQLFNHTMFVLEQEEYQREGIPWTFLDFGLDLQPCIDLIERPANPPGLLALLDEECWFPKATDKSFVEKVAQEQGGHPKFQRPRHLRDQADFSVLHYAGKVDYKANEWLMKNMDPLNDNVAALLHQSTDRLTAEIWKDVEGIVGLEQVSSLGDGPPGGRPRRGMFRTVGQLYKESLSRLMATLSNTNPSFVRCIVPNHEKRAGKLEPRLVLDQLRCNGVLEGIRICRQGFPNRILFQEFRQRYEILTPNAIPKGFMDGKQACEKMIQALELDPNLYRVGQSKIFFRAGVLAQLEEEREQTKSDYLKRANELVQWINDKQASLESRDFGDSIESVQSFMNAHKEYKKTEKPPKGQEVSELEAIYNSLQTKLRLIKREPFVAPAGLTPNEIDSTWSALEKAEQEHAEALRIELKRQKKIAVLLQKYNRILKKLENWATTKSVYLGSNETGDSITAVQAKLKNLEAFDGECQSLEGQSNSDLLSILAQLTELNYNGVPELTERKDTFFAQQWTGVKSSAETYKNT
notes: nonmuscle myosin-2C heavy chain (gene product of MYH14), human, motor domain, amino acids 1-799; alpha-actinin, Dictyostelium discoideum, spectrin repeats 1 and 2, used as artificial lever arm; Monomeric motor domain construct; also called NM2C; Hs NM2C; source: Sf9/baculovirus system, purified to electrophoretic homogeneity
For B1, the Kd in assay [1] is approximately 8 nM; in assay [3], approximately 60 nM. Besides, the kon was found to be 530000 ± 10000 M⁻¹ s⁻¹ in assay [2] and 2.49e+06 ± 70000 M⁻¹ s⁻¹ in assay [6]. For the same molecule, the koff in assay [4] is approximately 0.15 s⁻¹; in assay [5], approximately 0.004 s⁻¹.

B2: human nonmuscle myosin-2C motor domain (amino acids 1-799) R788E fused to spectrin repeats 1 and 2 from Dictyostelium alpha-actinin, C-terminal Flag-tag (domain or fragment)
chain: B1 chain with R788E
notes: nonmuscle myosin-2C heavy chain (gene product of MYH14), human, motor domain, amino acids 1-799, with R788E; alpha-actinin, Dictyostelium discoideum, spectrin repeats 1 and 2, used as artificial lever arm; Point mutant made by people on the fusion construct m1; also called Hs R788E; R788E (kinetic studies); source: Sf9/baculovirus system, purified to electrophoretic homogeneity
As for B2, the values for the Kd in assay [1] and in assay [3] were approximately 9 nM and approximately 47 nM, respectively. Also, the kon stood at 210000 ± 10000 M⁻¹ s⁻¹ in assay [2] and 660000 ± 30000 M⁻¹ s⁻¹ in assay [6]. In addition, the results for the koff in assay [4] and in assay [5] were approximately 0.031 s⁻¹ and approximately 0.002 s⁻¹, respectively.

B3: human nonmuscle myosin-2C motor domain (amino acids 1-799) R788K fused to spectrin repeats 1 and 2 from Dictyostelium alpha-actinin, C-terminal Flag-tag (domain or fragment)
chain: B1 chain with R788K
notes: nonmuscle myosin-2C heavy chain (gene product of MYH14), human, motor domain, amino acids 1-799, with R788K; alpha-actinin, Dictyostelium discoideum, spectrin repeats 1 and 2, used as artificial lever arm; Point mutant made by people on the fusion construct m1; also called Hs R788K; R788K (kinetic studies); source: Sf9/baculovirus system, purified to electrophoretic homogeneity
On to B3, for which the values for the Kd in assay [1] and in assay [3] were 26 to 43 nM and 24 to 42 nM, respectively. Besides, the kon in assay [2] is 2.53e+06 ± 50000 M⁻¹ s⁻¹; in assay [6], 1.65e+06 ± 30000 M⁻¹ s⁻¹. In addition, the values for the dissociation rate constant (koff) in assay [4] and in assay [5] were 0.04 to 0.07 s⁻¹ and 0.067 to 0.11 s⁻¹, respectively.

Broadly, the Kd is the equilibrium constant for the complex coming apart. As a reminder, the kon is the rate constant with which the complex forms. By koff is commonly meant a measure of how fast the partners let go of each other.
